From patent US20230257448A1 (TWIST BIOSCIENCE, published 2023)

Biological target: T1, S1 monomer of SARS-CoV-2 Omicron (SARS-CoV-2, UniProt P0DTC2 16-685)
T1 construct: domain: S1
Assay: SPR (Carterra LSA, antibody amine-coupled to the chip, spike protein as analyte)

B1: 3-31 (Fc fusion)
chain: EVQLVESGGGLVQPGGSLRLSCAASGSTFSINAMGWFRQAPGKEREFVAGITSSGGYTNYADSVKGRFTISADNSKNTAYLQMNSLKPEDTAVYYCAADGVPEYSDYASGPVWGQGTLVTVSS
Does B1 bind?
Result: no binding
